Common to all, as to assay: SEC; gel permeation chromatography of ArcticExpress bacterial lysates on Superdex 20/300 GL in rupturing buffer (20 mM Tricine pH 7.5, 7.5 mM MgCl2, 1 mM DTT), 0.25 ml/min; fractions immunoblotted with anti-S-tag; wild type also pretreated with CKII + 1 mM ATP or with CIP
The target in data set [1] is recombinant S-tagged Arabidopsis SS2 N-terminal truncation TRU1 (Arabidopsis thaliana) (UniProt Q9MAC8).
Data set [2] concerns the target recombinant S-tagged Arabidopsis SS2 N-terminal region polypeptide (NT) (Arabidopsis thaliana) (UniProt Q9MAC8).
Data set [3] deals with the molecule itself.

Turning to “recombinant S-tagged Arabidopsis SS2 N-terminal truncation TRU1 (from UniProt Q9MAC8 57-792) (domain or fragment)”, the stoichiometry N in data set [1] worked out at 2. As to “recombinant S-tagged Arabidopsis SS2 N-terminal region polypeptide (NT) (from UniProt Q9MAC8 56-240) (domain or fragment)”, in data set [2], the stoichiometry N was above 6.

B1: recombinant S-tagged mature Arabidopsis thaliana starch synthase 2 (wild type) (enzyme, UniProt Q9MAC8 55-792, looked up)
chain: KCVSRVEASGSDDDEPEDALQATIDKSKKVLAMQRNLLHQIAERRKLVSSIKESTPDLDDAKASSKQESASSVNANTDATKKEIMDGDANGSVSPSTYGKSSLSKEPEAKTFSPSTESLKNRKQSSASVISSSPVTSPQKPSDVATNGKPWSSVVASSVDPPYKPSSVMTSPEKTSDPVTSPGKPSKSRAGAFWSDPLPSYLTKAPQTSTMKTEKYVEKTPDVASSETNEPGKDEEKPPPLAGANVMNVILVAAECAPFSKTGGLGDVAGALPKSLARRGHRVMVVVPRYAEYAEAKDLGVRKRYKVAGQDMEVMYFHAFIDGVDFVFIDSPEFRHLSNNIYGGNRLDILKRMVLFCKAAVEVPWYVPCGGVCYGDGNLAFIANDWHTALLPVYLKAYYRDHGIMKYTRSVLVIHNIAHQGRGPVDDFSYVDLPSHYLDSFKLYDPVGGEHFNIFAAGLKAADRVLTVSHGYSWEVKTLEGGWGLHNIINENDWKFRGIVNGIDTQEWNPEFDTYLHSDDYTNYSLENLHIGKPQCKAALQKELGLPVRPDVPLIGFIGRLDHQKGVDLIAEAVPWMMSQDVQLVMLGTGRPDLEEVLRQMEHQYRDKARGWVGFSVKTAHRITAGADILLMPSRFEPCGLNQLYAMNYGTIPVVHAVGGLRDTVQQFDPYSETGLGWTFDSAEAGKLIHALGNCLLTYREYKESWEGLQRRGMTQDLSWDNAAEKYEEVLVAAKYHW
notes: Cloned into pET29a; Predicted 85 kDa; also called SS2; AtSS2; source: E. coli ArcticExpress; in bacterial lysate (GPC); not shown: S-tag, N-terminal, kept
As for B1, in data set [3], the “stoichiometry N” value came to 2.

The record behind these values is paper PMC6156364, “Bioinformatic and in vitro Analyses of Arabidopsis Starch Synthase 2 Reveal Post-translational Regulatory Mechanisms” (Frontiers in Plant Science, 2018).
